Data published in the Human Domainome abundance scans (Beltran et al. 2025).
± gives the uncertainty stated by the source.

assay: abundance fitness (aPCA) (normalised: wild type 0, dead -1); higher = more abundant; growth selection in yeast, the domain comes from the species named; conditions: Homo sapiens

| Substance | abundance fitness |
| --- | --- |
| SAFB-like transcription modulator I66W, Q9NWH9 | -0.451 ± 0.18 |
| SAFB-like transcription modulator I66Y, Q9NWH9 | 0.007 ± 0.16 |
| SAFB-like transcription modulator K20A, Q9NWH9 | -0.284 ± 0.039 |
| SAFB-like transcription modulator K20C, Q9NWH9 | -0.115 ± 0.043 |
| SAFB-like transcription modulator K20D, Q9NWH9 | -0.413 ± 0.11 |
| SAFB-like transcription modulator K20E, Q9NWH9 | -0.354 ± 0.13 |
| SAFB-like transcription modulator K20F, Q9NWH9 | -0.366 ± 0.16 |
| SAFB-like transcription modulator K20G, Q9NWH9 | -0.638 ± 0.082 |
| SAFB-like transcription modulator K20H, Q9NWH9 | 0.005 ± 0.12 |
| SAFB-like transcription modulator K20I, Q9NWH9 | 0.049 ± 0.11 |
| SAFB-like transcription modulator K20L, Q9NWH9 | -0.21 ± 0.078 |
| SAFB-like transcription modulator K20M, Q9NWH9 | -0.035 ± 0.075 |
| SAFB-like transcription modulator K20N, Q9NWH9 | -0.333 ± 0.17 |
| SAFB-like transcription modulator K20Q, Q9NWH9 | -0.193 ± 0.091 |
| SAFB-like transcription modulator K20S, Q9NWH9 | -0.244 ± 0.036 |
| SAFB-like transcription modulator K20T, Q9NWH9 | -0.212 ± 0.053 |
| SAFB-like transcription modulator K20V, Q9NWH9 | -0.252 ± 0.072 |
| SAFB-like transcription modulator K20W, Q9NWH9 | -0.284 ± 0.095 |
| SAFB-like transcription modulator K20Y, Q9NWH9 | -0.454 ± 0.3 |
| SAFB-like transcription modulator K21A, Q9NWH9 | -0.182 ± 0.033 |
| SAFB-like transcription modulator K21C, Q9NWH9 | -0.203 ± 0.058 |
| SAFB-like transcription modulator K21E, Q9NWH9 | -0.195 ± 0.064 |
| SAFB-like transcription modulator K21F, Q9NWH9 | -0.349 ± 0.077 |
| SAFB-like transcription modulator K21G, Q9NWH9 | -0.265 ± 0.046 |
| SAFB-like transcription modulator K21H, Q9NWH9 | -0.33 ± 0.091 |
| SAFB-like transcription modulator K21L, Q9NWH9 | -0.324 ± 0.041 |

| Substance | abundance fitness |
| --- | --- |
| SAFB-like transcription modulator K21N, Q9NWH9 | -0.491 ± 0.094 |
| SAFB-like transcription modulator K21P, Q9NWH9 | -0.312 ± 0.057 |
| SAFB-like transcription modulator K21Q, Q9NWH9 | -0.336 ± 0.052 |
| SAFB-like transcription modulator K21S, Q9NWH9 | -0.198 ± 0.056 |
| SAFB-like transcription modulator K21T, Q9NWH9 | -0.355 ± 0.064 |
| SAFB-like transcription modulator K21V, Q9NWH9 | -0.375 ± 0.04 |
| SAFB-like transcription modulator K21W, Q9NWH9 | -0.982 ± 0.12 |
| SAFB-like transcription modulator K21Y, Q9NWH9 | -0.667 ± 0.076 |
| SAFB-like transcription modulator K31A, Q9NWH9 | -0.352 ± 0.049 |
| SAFB-like transcription modulator K31C, Q9NWH9 | -0.223 ± 0.06 |
| SAFB-like transcription modulator K31E, Q9NWH9 | -0.219 ± 0.062 |
| SAFB-like transcription modulator K31F, Q9NWH9 | -0.288 ± 0.037 |
| SAFB-like transcription modulator K31G, Q9NWH9 | -0.859 ± 0.038 |
| SAFB-like transcription modulator K31H, Q9NWH9 | -0.102 ± 0.083 |
| SAFB-like transcription modulator K31I, Q9NWH9 | 0.131 ± 0.064 |
| SAFB-like transcription modulator K31L, Q9NWH9 | -0.155 ± 0.042 |
| SAFB-like transcription modulator K31M, Q9NWH9 | -0.241 ± 0.068 |
| SAFB-like transcription modulator K31N, Q9NWH9 | -0.629 ± 0.075 |
| SAFB-like transcription modulator K31P, Q9NWH9 | -1.16 ± 0.075 |
| SAFB-like transcription modulator K31Q, Q9NWH9 | -0.069 ± 0.075 |
| SAFB-like transcription modulator K31R, Q9NWH9 | -0.184 ± 0.047 |
| SAFB-like transcription modulator K31S, Q9NWH9 | -0.613 ± 0.061 |
| SAFB-like transcription modulator K31T, Q9NWH9 | -0.143 ± 0.043 |
| SAFB-like transcription modulator K31V, Q9NWH9 | -0.056 ± 0.053 |
| SAFB-like transcription modulator K31W, Q9NWH9 | -0.237 ± 0.053 |
